Results from US20240117073A1, “METHODS OF TREATING NEOPLASTIC ASTROCYTOMA” (Ludwig Institute for Cancer Research Ltd., priority 2009, published 2024).
“Also recorded” adds a separate entry of the source.

Assays:
[1] = biological target: T1, EGFR from U87MG.wtEGFR and A431 cells (Homo sapiens, UniProt P00533); assay: immunoprecipitation and Endo H digestion; type: binding
T1 construct: expressed in transfected cells; host or cells: U87MG.wtEGFR (transfected with wtEGFR) and A431 (endogenous, amplified gene)
Method: This possibility was tested by immunoprecipitating the EGFR from different cells lines labelled overnight with ^35S methionine/cysteine and then subjecting the resultant precipitates to Endoglycosidase H (Endo H) digestion. This enzyme preferentially removes high mannose type carbohydrates (i.e. immature glycosylation) from proteins while leaving complex carbohydrates (i.e. mature glycosylation) intact.

[2] = tested on: HN5 head and neck cell line; assay: FACS binding to cell lines; type: cell-based, human
[3] = biological target: T2, wtEGFR (Homo sapiens, UniProt P00533); assay: immunoblotting of cell lysates; type: binding
T2 construct: host or cells: cell lysates

[4] = biological target: T3, sEGFR (recombinant extracellular domain, amino acids 1-621, of the wild-type EGFR) (Homo sapiens, UniProt P00533); assay: ELISA on sEGFR coated plates; type: binding
T3 construct: sEGFR is the recombinant extracellular domain (amino acids 1-621) of the wild-type EGFR; host or cells: CHO cells
Method: Two types of ELISA were used to determine the specificity of the antibodies. […] Growth Factors. 18, 11-29). Antibodies were added to wells in triplicate at increasing concentration in 2% HSA in phosphate-buffered saline (PBS).

[5] = tested on: U87MG expressing wild-type EGFR; assay: protein A mixed hemadsorption; type: cell-based, human; conditions: undiluted supernatant less than 10%
Method: As expected, the 528 antibody stained both the U87MG.Δ2-7 and U87MG.wtEGFR cell lines (FIG. 1). As expected, the 528 antibody stained U87MG.Δ2-7 with a higher intensity than the parental cell as it binds both the de2-7 and wild-type receptors that are co-expressed in these cells (FIG. 1). Similar results were obtained using a protein A mixed hemadsorption which detects surface bound IgG by appearance of […] (group O) to target cells.

[6] = tested on: normal tissues; assay: immunohistochemistry of normal tissue; set-up: species or system human
Method: Immunohistochemical analysis was performed using […] sections of fresh frozen tissue applied to histology slides and fixed for 10 minutes in cold acetone. Bound primary antibody was detected with biotinylated horse anti-mouse antibody followed by an avidin-biotin-complex reaction. Diaminobenzidine tetra hydrochloride (DAB) was used as chromogen. The extent of the immunohistochemical reactivity in tissues was estimated by light microscopy and graded according to the number of immunoreactive cells in 25% increments as follows: • Focal=less than 5% • +=5-25% • ++=25-50% • +++=50-75% • ++++=>75%
There was some variable staining present in tonsils with mAb806 that was restricted to the basal cell layer of the epidermis and mucosal squamous cells of the epithelium. In placenta, occasional immunostaining of the trophoblast epithelium was observed. […] All tissues were positive for the wtEGFR as evidenced by the universal staining seen with the 528 antibody (Table 3).

[7] = tested on: U87MG cells; assay: FACS binding to cell lines; type: cell-based, human
Method: Briefly, cells were labelled with the relevant antibody (10 μg/ml) followed by fluorescein-conjugated goat anti-mouse IgG (1:100 dilution; Calbiochem San Diego, CA, USA; Becton-Dickinson PharMingen, San Diego, CA, US) as described previously (Nishikawa et al., 1994). FACS data was obtained on a Coulter Epics Elite ESP by observing a minimum of 5,000 events and analyzed using EXPO (version 2) for Windows.
Stained cells were analyzed with a FACS Calibur™ using Cell Quest™ software (Becton-Dickinson PharMingen). […] Mouse IgG2a or IgG2b was used as an isotype control.
Cells (1 3 10 6) were incubated with 5 μg/ml of the appropriate antibody or an isotype-matched negative control in PBS containing 1% HSA for 30 min at 4° C. After three washes with PBS/1% HSA, cells were incubated an additional 30 min at 4° C. with FTTC-coupled goat anti-mouse antibody (1:100 dilution; Calbiochem, San Diego, CA). After three subsequent washes, cells were analyzed on an Epics Elite ESP (Beckman Coulter, Hialeah, FL) by observing a minimum of 20,000 events and analyzed using EXPO (version 2) for Windows.

[8] = tested on: U87MG xenografts; assay: preventative xenograft model; type: in vivo, nude mice; conditions: 1 mg per injection i.p., 3 times per week for 2 weeks
Method: Tumor cells (3×10^6) in […] of PBS were inoculated subcutaneously into both flanks of 4-6 week old female nude mice (Animal Research Centre, Western Australia, Australia). […] Treatment was continued for a total of 6 doses, 3 times per week for 2 weeks. In the established model, treatment was started when tumors had reached a mean volume of 65±6.42 mm^3 (U87MG.Δ2-7), 84±9.07 mm^3 (U87MG), 73±7.5 mm^3 (U87MG.wtEGFR) or 201±19.09 mm^3 (A431 tumors). Tumor volume in mm^3 was determined using the formula (length×width^2)/2, where length was the longest axis and width the measurement at right angles to the length (Clark et al. (2000) Therapeutic efficacy of anti-Lewis (y) humanized 3S 193 radioimmunotherapy in a breast cancer model: enhanced activity when combined with Taxol chemotherapy. Clin. Cancer Res. 6, 3621-3628). Data was expressed as mean tumor volume±S.E. for each treatment group. Statistical analysis was performed at given time points using Student's t-test. Animals were euthanized when the xenografts reached an approximate volume of 1.5 cm^3 and the tumors excised for histological examination. This research project was approved by the Animal Ethics Committee of the Austin and Repatriation Medical Centre.

[9] = biological target: T4, EGFR extracted from DU145 cells (Homo sapiens, UniProt P00533); assay: immunoprecipitation and immunoblot; type: binding
T4 construct: endogenous in cells; host or cells: DU145
Method: Cells were lysed with lysis buffer (1% Triton X-IOO, 30 mM HEPES, 150 mM NaCl, […] 4-(2-aminoethyl) benzenesulfonylfluoride, 150 nM aprotinin, 1 mM E-64 protease inhibitor, 0.5 mM EDTA, and 1 mM leupeptin, pH 7.4) for 20 minutes, clarified by centrifugation at 14,000×g for 30 minutes, immunoprecipitated with the relevant antibodies at a final concentration of 5 μg/ml for 60 minutes and captured by Sepharose-A beads overnight. Samples were then eluted with 2× NuPAGE® SDS Sample Buffer (Invitrogen), resolved on NuPAGE® gels (either 3-8% or 4-12%), electro-transferred onto Immobilon®-P transfer membrane (Millipore) then probed with the relevant antibodies before detection by chemoluminescence radiography.
Clearly, mAb806 and mAb175 can recognize only a small proportion of the EGFR on cells in the presence of an autocrine stimulation loop.

[10] = biological target: T5, sEGFR (Homo sapiens, UniProt P00533); assay: BIAcore, immobilized sEGFR; type: binding
T5 construct: sEGFR is the recombinant extracellular domain (amino acids 1-621) of the wild-type EGFR; host or cells: CHO cells
Method: In a second set of BIAcore™ experiments, sEGFR was immobilized on a CM microsensor chip at a surface density of ˜4000RU. Serial dilutions of mAbs were tested for reactivity with sEGFR.

[11] = tested on: U87MG.de2-7 cells; assay: ADCC assay; type: cell-based, human; conditions: E:T ratio 50:1
Method: PBMCs were isolated from healthy volunteer donor blood. Heparinized whole blood was fractionated by density centrifugation on Ficoll-Hypaque (ICN Biomedical Inc., Ohio, USA). PBMC fractions was collected and washed three times with RPMI+1640 supplemented with 100 U/ml penicillin and 100 μg/ml streptomycin, 2 mM L-glutamine, containing 5% heat-inactivated FCS.
CDC and ADCC assays were performed by a modification of a previously published method (Nelson, D. L. et al. (1991) In: J. E. Colignan, A. M. Kruisbeek, D. D. Margulies, E. M. Shevach, and W. Strober (eds.), Current Protocols in Immunology, pp. 7.27.1. New York: Greene Publishing Wiley Interscience). Briefly, 5×10^6 target U87MG.de2-7 and A431cells were labeled with 50 μCi^51Cr (Geneworks, Adelaide, Australia) per 1×10^6 cells and incubated for 2 hr at 37° C. The cells were then washed three time with PBS (0.05M, pH 7.4) and a fourth wash with culture medium. […]
In the first assay, labelled target cells were plated with the effector cells in 96-well “U” bottom microplates (NUNC, Roskilde, Denmark) at effector/target (E:T) cell ratios of 50:1. […] In both assays, micotitre plates were incubated at 37° C. for 4 hours, then 50 μl supernatant was harvested from each well and released ^51Cr was determined by gamma counting (Cobra II automated Gamma Counter, Canberra Packard, Melbourne, Australia). […]

[12] = tested on: A431 cells; assay: FACS binding to cell lines; type: cell-based, human
Source text: FACS data was obtained on a Coulter Epics Elite ESP by observing a minimum of 5,000 events and analyzed using EXPO (version 2) for Windows.
As described previously, A431 cells are human squamous carcinoma cells and express high levels of wtEGFR.
The estimates of antibody concentration determined for each sample by the OD Δ280 nm were utilised for FACS analyses with the adenocarcinoma cell line A431 cells (containing EGFR gene amplification). […] Control for secondary antibody alone was also included [Goat anti hu-IgG (Fc specific) FITC conjugated].

[13] = biological target: T6, deglycosylated sEGFR (Homo sapiens, UniProt P00533); assay: immunoblot of PNGase F treated sEGFR; type: binding
T6 construct: sEGFR is the recombinant extracellular domain (amino acids 1-621) of the wild-type EGFR; host or cells: CHO cells
Method: To determine if carbohydrate structures are directly involved in the mAb806 epitope, the recombinant sEGFR expressed in CHO cells was treated with PNGase F to remove N-linked glycosylation.

B1: mAb806: murine monoclonal antibody recognizing de2-7 EGFR and amplified EGFR; VH SEQ ID NO:2, VL SEQ ID NO:4 (antibody, listed as Mus musculus, V domains shown)
VH: MRVLILLWLFTAFPGVLSDVQLQESGPSLVKPSQSLSLTCTVTGYSITSDFAWNWIRQFPGNKLEWMGYISYSGNTRYNPSLKSRISITRDTSKNQFFLQLNSVTIEDTATYYCVTAGRGFPYWGQGTLVTVSA
VL: MVSTAQFLAFLLLWFPGARCDILMTQSPSSMSVSLGDTVSITCHSSQDINSNIGWLQQRPGKSFKGLIYHGTNLDDEVPSRFSGSGSGADYSLTISSLESEDFADYYCVQYAQFPWTFGGGTKLEIKR
Endo H sensitivity of precipitated EGFR [1]: sensitive to Endo H | FACS staining [2]: clearly stained both cell lines but at a lower level | reactivity after immunoblotting [3]: bound to the wtEGFR | inhibition of antibody binding to immobilized sEGFR by sEGFR in solution [4]: unable to inhibit | binding to immobilized wild-type sEGFR ([4]; DH8.3 up to 10 μg/ml): dose-dependent and saturating binding curves | inhibition of antibody binding to immobilized sEGFR by denatured sEGFR in solution ([4]; sEGFR heated 10 min at 95° C.): able to inhibit | reactivity [5]: no significant reactivity | reactivity ([6]; Skin): − occ. weak reactivity | reactivity ([6]; Tonsil): − occ. weak reactivity | FACS staining [7]: binding levels similar to the control antibody; also recorded: not with U87MG cells | effect on xenograft growth [8]: no effect | immunoprecipitation of EGFR [9]: immunoprecipitate a small proportion of the EGFR | reactivity with denaturated sEGFR [10]: strongly reactive | ADCC [11]: lack of parental murine mAb806 immune effector function | FACS staining [12]: Low, but highly reproducible, binding | binding to deglycosylated sEGFR [13]: clearly bound the deglycosylated material
